1 substance from paper PMC4510971 can be followed below.

Common to all, as to test: ITC; 0.450 mM UBN1 injected into a cell with 30 μM H3/H4, 22 °C; 20 mM HEPES pH 7.5, 750 mM NaCl, 1 mM TCEP
For orientation: Isothermal titration calorimetry measures the heat released or taken up as one component is titrated into another.

Assay [1] deals with Asf1(1–169)/H3.3(60–135)/H4(20–102) (S. cerevisiae | X. laevis) (UniProt P32447).
In assay [2] the target is H3.3(G90M)/H4 (human | X. laevis) (UniProt P62799).
The target in assay [3] is H3.3(SAVM)/H4 (human | X. laevis) (UniProt P84243).

Chain of UBN1(122–148) peptide (Q9NPG3 122-148): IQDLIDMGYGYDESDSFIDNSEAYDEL

Substance “UBN1(122–148) peptide (from UniProt Q9NPG3 122-148)” registered a Kd in assay [1] of 110 µM. The fold decrease in binding relative to H3.3 WT in assay [2] and in assay [3] was 3 fold in each case.

The term Kd denotes the free concentration of one partner at which half of the binding sites on the other are occupied at equilibrium, for simple one-to-one binding. Low values mean tighter binding, high ones weaker binding.
